Reference: patent US20030181408A1, “Genes essential for microbial proliferation and antisense thereto” (priority 1999, published 2003)
In brackets after ≈: the same amount, converted by molar mass. Where a SMILES comes first, the peptide text is derived from it. Bridges are numbered along the chain shown (N, C = ends). [ ]: non-standard residue; d: D form. The star is where a group is joined. Ileψ(thiazoline)Cys = CC[C@H](C)[C@H](N)C1=N[C@H](C(=O)*)CS1; dOrn = NCCC[C@@H](N)C(=O)O

B1: EcXA072: antisense clone insert, E. coli gene recJ (nucleic acid, listed as Escherichia coli)
DNA: GATTTTTACCGGATTAATTTTAAACATGGTCTGATTTCTTTTATTGAGCTAGTCAAAATGCGGTGATAAGAGCGGGATTGTCCCAATCCACGCTCTTTTTTATAGAGAAGATGACGCTAAATTGGCCAGATATTGTCGATGATAATTTG
B2: EcXA062: antisense clone insert, E. coli gene rep (nucleic acid, listed as Escherichia coli)
DNA: CGCGTGGAGAGTCATCAGTTGCACCTGATCCAGCTCTTCTTCACTCTCACCACGCTCNATCATGTCGCGCAAAGTAAAGCGCGTCACCACCTGGGTGAGCGTCATCGGCTCATCCAGTTCACTGCCTTCCAGCATCTCCGTCATCCAGCTAAACAGTTGGTTGACGTTCTTCATGCGCATTTCGGCGGCTTTCGGGCTGGGCGATGTTTCGTACAGCCAGGATTCATAATCCATGCCATGGATCAGATCACGCACCGCGGCAATCGGCTCCCGCTCCGCCAGACGCTGGATTTCTGCCAACCAGTGAGTGAAGCGGGTCAATGCTTCA
modifications: misc_feature (1)...(328): n = A,T,C or G
notes: antisense clone insert, E. coli gene rep
B3: EcXA082: antisense clone insert, E. coli genes hybC; hybB (nucleic acid, listed as Escherichia coli)
DNA: TGCTTTGCTCGCCTCATGACGATTATGATCGTTTTGTTTTAAAGGAGGAAGTATCGGCAGTAGACGAATGAGTACGATGTAAGCGCAAATCTCAATAGCCACAAAACCAATAGAAATCAACAGTTCTTCCCAGGTCGGGAAGTA
B4: EcXA059: antisense clone insert, portion of the ypjA gene of Escherichia coli (nucleic acid, listed as Escherichia coli)
DNA: NACCANGANTGGGACCCAAATGAAAATTGAACTGAAGATTACAATCAATTTAACANCAAGTTACACAACCAATTCAGACTCCGCCAGCCCACCAATCATGATTGGACGGTGTAAGGACAACACCAACAAAAACAGGAAGTTAGAAGTCTNAGCAAAACACCGACCAGACGGTGAGGAGACATAAAAGGATACGCAAAGGAGCCGCGGCTCCTGGTAACATGAAAGCCCACAGATGTGGGCTTTTTCGTTGATGGTCAGAACGACCAGTTCACACCAGCTACCGCGTTCCACGGGGATTCCACACCGGCACTATGGCTATACCCCACCCCAAGATGCCCGCTTAACGTACTGCTGAATGAGGCTTTAATACCTGCCTGGTATATTCCACGTCTGCCCGACAAATAATTGACGAAATTACCGNCACTATTCACTTTCACCCGGTTATCATCGACAAATTCTTTGCGCACAAGCCGNCTTCAGCCACGGNTCAACTTCCATACCGNTCCCCAGACGCATGTTGTAACTCAACGTTGCGCCCAGTTCACGATATATACTGCGGGTATCGACTGATTTCGATTTCATGCCATTGGATAAATGATATTCGGGGTTATCAGCGGTGAAACCCGTTNACGATGCATACNGGGTCAGGGTTCAATTACCATCGGTAAATCGCATTCCCGGTTTCAATGTGACCGCCAANCCCGTTGCTGTNGGTAACTGGCATTGGCGGGTTCANCGGTGGTAATTTTAACCTGGTACGNTACTTTTAAAACGGGTTAAGCTTTACCGAANACCGTNCANNATTGGAAACCCNCTTTTAATGGTTNCCCAACTNGGNN
modifications: misc_feature (1)...(839): n = A,T,C or G
notes: antisense clone insert, portion of the ypjA gene of Escherichia coli
B5: EcXA069: antisense clone insert, E. coli genes RplD; rplC (nucleic acid, listed as Escherichia coli)
DNA: TGAAATNCGACCGAAGGTAGTTTCGGAAACAGTCAGCGCGCTCTGCGCGTCTTTCAATACTAATTCCATTGCTATCTCCTTACGCCTTCACAGCTGGTTTAACGATCAGGTCGCTACCGGTTGCACCCGGGACAGCACCTTTAACCAGCAGCAGGT
modifications: misc_feature (1)...(156): n = A,T,C or G
notes: antisense clone insert, E. coli genes RplD; rplC
B6: EcXA104: antisense clone insert, E. coli gene hsdS (nucleic acid, listed as Escherichia coli)
DNA: GACGCGGCGAACGATTTCGGCTTGTTCTTTTACTGGAGGTAATAAAACAACTTGGGATTTGATATCTTTTCCTGAAATACCTTTTTGACCAGAAGTTGTTTTCACGCAGTTCATCATTGCATTTCGTGCTGAGGGGGATGAAAAAAATATTTCGATATATTCTGGTAAAGCATCTTT

What was measured:
[1] = system: bacterial strain engineered for expression of an antisense against rplL and rplJ (50S ribosomal subunit proteins); experiment: microbe, parasite or virus in culture; type: cell-based, E. coli; conditions: read-out: IC50 (+I)
Procedure: Antibiotics of various chemical classes and modes of action were purchased from Sigma Chemicals (St. Louis, Mo.). Stock solutions were prepared by dissolving each antibiotic in an appropriate aqueous solution based on information provided by the manufacturer. The final working solution of each antibiotic contained no more than 0.2% (w/v) of any organic solvent. To determine their potency against a bacterial strain engineered for expression of an antisense against a proliferation-required gene encoding 50S ribosomal protein, each antibiotic was serially diluted two or three fold in growth medium supplemented with the appropriate antibiotic for maintenance of the anti-sense construct. At least ten dilutions were prepared for each antibiotic. 25 μL aliquots of each dilution were transferred to discrete wells of a 384-well microplate (the assay plate) using a multi-channel pipette. Quadruplicate wells were used for each dilution of an antibiotic under each treatment condition (plus and minus inducer). Each assay plate contained twenty wells for cell growth controls (growth media replacing antibiotic), ten wells for each treatment (plus and minus inducer, in this example IPTG). Assay plates were usually divided into the two treatments: half the plate containing induced cells and an appropriate concentrations of inducer (in this example IPTG) to maintain the state of induction, the other half containing non-induced cells in the absence of IPTG.
Cells for the assay were prepared as follows. Bacterial cells containing a construct, from which expression of antisense nucleic acid against rplL and rplJ, which encode proliferation-required 50S ribosomal subunit proteins, is inducible in the presence of IPTG, were grown into exponential growth (OD600 0.2 to 0.3) and then diluted 1:100 into fresh media containing either 400 μM or 0 μM inducer (IPTG). These cultures were incubated at 37° C. for 2.5 hr. After a 2.5 hr incubation, induced and non-induced cells were respectively diluted into an assay medium at a final OD600 value of 0.0004. The medium contained an appropriate concentration of the antibiotic for the maintenance of the anti-sense construct. In addition, the medium used to dilute induced cells was supplemented with 800 μM IPTG so that addition to the assay plate would result in a final IPTG concentration of 400 μM. Induced and non-induced cell suspensions were dispensed (25 μl/well) into the appropriate wells of the assay plate as discussed previously. The plate was then loaded into a plate reader, incubated at constant temperature, and cell growth was monitored in each well by the measurement of light scattering at 595 nm. Growth was monitored every 5 minutes until the cell culture attained a stationary growth phase. For each concentration of antibiotic, a percentage inhibition of growth was calculated at the time point corresponding to mid-exponential growth for the associated control wells (no antibiotic, plus or minus IPTG). For each antibiotic and condition (plus or minus IPTG), a plot of percent inhibition versus log of antibiotic concentration was generated and the IC50 determined.

E. coli = experiment: Inhibition of E. coli proliferation after IPTG induction of antisense clones (liquid growth curves, dilution spotting on plates); type: cell-based, Escherichia coli; conditions: for effect of antisense expression on E. coli growth after IPTG induction: 1 mM IPTG
Procedure: (§1) To study the effects of transcriptional induction in liquid medium, growth curves were carried out by back diluting cultures 1:200 into fresh media with or without 1 mM IPTG and measuring the OD450 every 30 minutes (min). To study the effects of transcriptional induction on solid medium, 10^2, 10^3, 10^4, 10^5, 10^6, 10^7 and 10^8 fold dilutions of overnight cultures were prepared. Aliquots of from 0.5 to 3 μl of these dilutions were spotted on selective agar plates with or without 1 mM IPTG. After overnight incubation, the plates were compared to assess the sensitivity of the clones to IPTG.
(§2) Molecule No. EcXA059, encoding a portion of the ypjA gene of Escherichia coli, was either transformed directly into Enterobacter cloacae, Salmonella typhimurium and/or Klebsiella pneumoniae or subdloned into an expression vector functional in these species and the subclones transformed into these organisms. Suitable expression vectors are well known in the art. These expression vectors were introduced into Enterobacter cloacae, Salmonella typhimurium and/or Klebsiella pneumoniae cells that were then assayed for growth inhibition according to the method of Example 1. After growth in liquid culture, cells were plated at various serial dilutions and a score determined by calculating the log difference in growth for INDUCED vs. UNINDUCED antisense RNA expression as determined by the maximum 10 fold dilution at which a colony was observed. If there was no effect of antisense RNA expression in one organism, the clone is given a score of zero “0” in that organism. In contrast, a score of “8” means that 10^8 times more cells were required to observe a colony formed on the induced state than in the non-induced state under the conditions used and in that organism.

Enterobacter cloacae = experiment: Growth inhibition by IPTG-induced antisense RNA expression in Enterobacter cloacae (induced vs. uninduced serial dilution plating); type: cell-based
Procedure: as §1, §2
(§3) Expression vectors which inhibited growth of E. coli upon induction of antisense RNA expression with IPTG were transformed directly into Enterobacter cloacae, Klebsiella pneumonia or Salmonella typhimurium. The transformed cells were then assayed for growth inhibition according to the method of Example 1. After growth in liquid culture, cells were plated at various serial dilutions and a score determined by calculating the log difference in growth for INDUCED vs. UNINDUCED antisense RNA expression as determined by the maximum 10 fold dilution at which a colony was observed. If there was no effect of antisense RNA expression in a microorganism, the clone is minus in Table V below. In contrast, a positive in Table V below means that at least 10 fold more cells were required to observe a colony on the induced plate than on the non-induced plate under the conditions used and in that microorganism.

Salmonella typhimurium = experiment: Growth inhibition by IPTG-induced antisense RNA expression in Salmonella typhimurium (induced vs. uninduced serial dilution plating); type: cell-based
Procedure: as §1, §2, §3

Klebsiella pneumoniae = experiment: Growth inhibition by IPTG-induced antisense RNA expression in Klebsiella pneumoniae (induced vs. uninduced serial dilution plating); type: cell-based
Procedure: as §1, §2, §3

Molecule | IC50 [1] [µg/mL] | effect of antisense expression on E. coli growth after IPTG induction (E. coli) | also measured
CC[C@H](C)[C@H](N)C1=N[C@H](C(=O)N[C@@H](CC(C)C)C(=O)N[C@H](CCC(=O)O)C(=O)N[C@H](C(=O)N[C@H]2CCCCNC(=O)[C@H](CC(N)=O)NC(=O)[C@@H](CC(=O)O)NC(=O)[C@H](Cc3cnc[nH]3)NC(=O)[C@@H](Cc3ccccc3)NC(=O)[C@H]([C@@H](C)CC)NC(=O)[C@@H](CCCN)NC2=O)[C@@H](C)CC)CS1 [Bacitracin] ({Ileψ(thiazoline)Cys}-L[dE]IK[dOrn]I[dF]H[dD]N; lactam 4-C) | 4670 (≈ 3280 µM) |  | 
CO/N=C(\C(=O)N[C@@H]1C(=O)N2C(C(=O)O)=C(COC(C)=O)CS[C@H]12)c1csc(N)n1 [Cefotaxime] | 0.0241 (≈ 0.0529 µM) |  | 
O=C(N[C@H](CO)[C@H](O)c1ccc([N+](=O)[O-])cc1)C(Cl)Cl [Chloramphenicol] | 0.00151 (≈ 0.00467 µM) |  | 
CN(C)c1ccc(O)c2c1C[C@H]1C[C@H]3[C@H](N(C)C)C(O)=C(C(N)=O)C(=O)[C@@]3(O)C(O)=C1C2=O [Minocycline] | 0.00389 (≈ 0.0085 µM) |  | 
CCn1cc(C(=O)O)c(=O)c2ccc(C)nc21 [Nalidixic acid] | 6.02 (≈ 25.9 µM) |  | 
CN[C@@H]1[C@H](O)[C@H](NC)[C@H]2O[C@@]3(O)C(=O)C[C@@H](C)O[C@H]3O[C@@H]2[C@H]1O [Spectinomycin] | < 0.15 |  | 
NC[C@H]1O[C@H](O[C@H]2[C@H](O)[C@@H](O[C@H]3O[C@H](CO)[C@@H](O)[C@H](N)[C@H]3O)[C@H](N)C[C@@H]2N)[C@H](N)C[C@@H]1O [Tobramycin] | 0.0705 (≈ 0.151 µM) |  | 
B1 |  | reduction in cell growth | Sensitivity of E. cloacae to antisense nucleic acid (growth inhibition, induced vs. uninduced) (Enterobacter cloacae): −
B2 |  | reduction in cell growth | Sensitivity of E. cloacae to antisense nucleic acid (growth inhibition, induced vs. uninduced) (Enterobacter cloacae): −; Sensitivity of S. typhimurium to antisense nucleic acid (growth inhibition, induced vs. uninduced) (Salmonella typhimurium): −; Sensitivity of K. pneumoniae to antisense nucleic acid (growth inhibition, induced vs. uninduced) (Klebsiella pneumoniae): −
B3 |  | reduction in cell growth | Sensitivity of S. typhimurium to antisense nucleic acid (growth inhibition, induced vs. uninduced) (Salmonella typhimurium): −; Sensitivity of K. pneumoniae to antisense nucleic acid (growth inhibition, induced vs. uninduced) (Klebsiella pneumoniae): −
B4 |  |  | score: log difference in growth for INDUCED vs. UNINDUCED antisense RNA expression (E. coli; Escherichia coli, IPTG induction, maximum 10 fold dilution at which a colony was observed): 8
B5 |  |  | Sensitivity of E. cloacae to antisense nucleic acid (growth inhibition, induced vs. uninduced) (Enterobacter cloacae): + (a positive in Table V below means that at least 10 fold more cells were required to observe a colony on the induced plate than on the non-induced plate); Sensitivity of S. typhimurium to antisense nucleic acid (growth inhibition, induced vs. uninduced) (Salmonella typhimurium): −; Sensitivity of K. pneumoniae to antisense nucleic acid (growth inhibition, induced vs. uninduced) (Klebsiella pneumoniae): −
B6 |  | reduction in cell growth | 
